Drawing on publication PMC10952495, “Glycosylation increases active site rigidity leading to improved enzyme stability and turnover” (The Febs Journal, 2023), this text covers Km, kcat and kcat/Km for two proteins.

Substrate in the data set: Nc1ccccc1N
Kind of data set: purified protein. The data set is classed as biochemical, Armoracia rusticana. The conditions noted are these: 25.0 °C.

[1] abbreviates: holo enzyme 0.5 nM, 3% v/v H2O2, 50 mM Tris pH 8.0, 298 K.
The mark [2] stands for this setting: holo enzyme 10 nM, 3% v/v H2O2, 20 mM Bis-Tris pH 7.0, 298 K.

B1: pHRP (plant horseradish peroxidase, glycosylated) (Armoracia rusticana) (protein)
chain: QLTPTFYDNSCPNVSNIVRDTIVNELRSDPRIAASILRLHFHDCFVNGCDASILLDNTTSFRTEKDAFGNANSARGFPVIDRMKAAVESACPRTVSCADLLTIAAQQSVTLAGGPSWRVPLGRRDSLQAFLDLANANLPAPFFTLPQLKDSFRNVGLNRSSDLVALSGGHTFGKNQCRFIMDRLYNFSNTGLPDPTLNTTYLQTLRGLCPLNGNLSALVDFDLRTPTIFDNKYYVNLEEQKGLIQSDQELFSSPNATDTIPLVRSFANSTQTFFNAFVEAMDRMGNITPLTGTQGQIRLNCRVVNSNS
notes: native from horseradish root, 8 N-linked glycans, clinical diagnostic grade (Ortho Clinical Diagnostics), with and without C-terminal serine, monomer
Turning to B1, under setting [1], the Km – broadly, the concentration of substrate that gives half-maximal velocity – turned out to be 920 ± 100 µM; the kcat (as a rule, the maximal rate divided by the concentration of active sites) came out at 917 ± 53 s⁻¹; the kcat/Km (usually the second-order rate constant that governs catalysis at low substrate concentration) was 1e+06 M⁻¹ s⁻¹.

B2: rHRP (recombinant horseradish peroxidase, nonglycosylated) (Armoracia rusticana) (protein)
chain: QLTPTFYDNSCPNVSNIVRDTIVNELRSDPRIAASILRLHFHDCFVNGCDASILLDNTTSFRTEKDAFGNANSARGFPVIDRMKAAVESACPRTVSCADLLTIAAQQSVTLAGGPSWRVPLGRRDSLQAFLDLANANLPAPFFTLPQLKDSFRNVGLNRSSDLVALSGGHTFGKNQCRFIMDRLYNFSNTGLPDPTLNTTYLQTLRGLCPLNGNLSALVDFDLRTPTIFDNKYYVNLEEQKGLIQSDQELFSSPNATDTIPLVRSFANSTQTFFNAFVEAMDRMGNITPLTGTQGQIRLNCRVVNSNS
Turning to B2, under setting [2], the Km stood at 980 ± 130 µM, the kcat was determined as 86.2 ± 4.7 s⁻¹ and the kcat/Km was 88200 M⁻¹ s⁻¹.
